Positions count from the first letter of the chain named. Numbers in names are those of the source.
B1: His-LRS-(759-1176): His-tagged fragment of leucyl tRNA synthetase, residues 759-1176 (protein)
chain: MADAGILRLYTWVEWVKEMVANWDSLRSGPASTFNDRVFASELNAGIIKTDQNYEKMMFKEALKTGFFEFQAAKDKYRELAVEGMHRELVFRFIEVQTLLLAPFCPHLCEHIWTLLGKPDSIMNASWPVAGPVNEVLIHSSQYLMEVTHDLRLRLKNYMMPAKGKKTDKQPLQKPSHCTIYVAKNYPPWQHTTLSVLRKHFEANNGKLPDNKVIASELGSMPELKKYMKKVMPFVAMIKENLEKMGPRILDLQLEFDEKAVLMENIVYLTNSLELEHIEVKFASEAEDKIREDCCPGKPLNVFRIEPGVSVSLVNPQPSNGHFSTKIEIRQGDNCDSIIRRLMKMNRGIKDLSKVKLMRFDDPLLGPRRVPVLGKEYTEKTPISEHAVFNVDLMSKKIHLTENGIRVDIGDTIIYLVH
modifications: left off: small tags and cut ends
B2: R845A: LRS (759-1176 a.a) fragment with alanine mutation R845A in the putative GAP motif (protein, UniProt Q9P2J5 759-1176, looked up, variant R845A)
chain: B1 chain with R87A
B3: H844A: LRS (759-1176 a.a) fragment with alanine mutation H844A in the putative GAP motif (protein, UniProt Q9P2J5 759-1176, looked up, variant H844A)
chain: B1 chain with H86A

Tests used:
[1] = target: T1, LRS-(1-1176) / RagD binding (Homo sapiens, UniProt Q9NQL2); assay: ELISA for binding between LRS and RagD; conditions: GST-RagD on plate coated with His-LRS-(1-1176), fragment added during incubation
T1 construct: Purified GST-RagD was incubated with His-LRS-(1-1176) coated on a plate; made in house; host or cells: E. coli BL21(DE3) for His-LRS (pET 16a); E. coli BL21 for GST-RagD (pGEX4T3)
Protocol: FIGS. 13a and 13b show ELISA assay results for measuring binding affinity between LRS and RagD.
In FIG. 13b, the comparison result of binding affinity for control (GST), RagD and RagD+LRS-(759-1176) on a 96 well plate coated with LRS-(1-1176) is shown.
First, each fragment of LRS was synthesized by PCR amplification using the cDNA of LRS as a template and a primer set (Table 1) specific for each fragment. The PCR amplification was performed under the following conditions: predenaturation of the template DNA at 95° C. for 2 min; and then 30 cycles, each consisting of 30 sec at 95° C., 30 sec at 56° C., and 3 min and 30 sec at 72° C.; followed by final extension at 72° C. for 10 min. Each of the PCR products was digested with NdeI and BamHI and ligated into a pET 16a vector (Novagen) digested with the same restriction enzymes. E. coli BL21(DE3) cells were transformed with the vector and cultured to induce the expression of peptides. Each peptide expressed as a His-tag fusion protein was purified by Ni-chelating agarose. […]
A fragment of RagD was synthesized by PCR amplification using the cDNA of […] as a template and a primer set (Table 1) specific for each fragment. […] Each peptide expressed as a GST-tag fusion protein was purified by GSH agarose. […]

[2] = target: T2, RagD GTPase (Homo sapiens, UniProt Q9NQL2); assay: In vitro GTPase assay; type: biochemical; conditions: LRS (759-1176 a.a) fragment incubated with RagD, 37° C.
T2 construct: made in house; host or cells: LRS fragment: E. coli BL21(DE3), pET 16a
Protocol: In FIG. 7a, the indicated amounts of Histagged LRS (759-1176 a.a) fragment were incubated with 0.15 pM RagD for 20 min at 37° C. The error bars represent mean S.D. (n=3).
In FIG. 7b, his-tagged LRS fragments (0.3 μM) were incubated with RagD for the indicated times. The error bars represent mean S.D. (n=3).
In FIG. 7d, the effects of LRS WT and mutants on GTP hydrolysis of RagD is shown. Purified LRS WT (759-1176 a.a) fragment or mutants (H844A, R845A) fragments were incubated with RagD for 20 min at 37° C. The error bars represent mean S.D. (n=3).
GTPase assays were conducted in assay buffer (20 mM piperazine-N,N9-bis(2-ethanesulfonic acid), 20 mM HEPES, 5 mM MgCl2, 125 mM NaCl, 5 mM KCl at pH 7.0, 0.5 mM GTP) containing 0.1% bovine serum albumin in a final volume of […] using GTPase assay kit (Innova Biosciences) according to manufacturer's instructions.

T2 sequence (Q9NQL2 whole entry, the tested form may be a part): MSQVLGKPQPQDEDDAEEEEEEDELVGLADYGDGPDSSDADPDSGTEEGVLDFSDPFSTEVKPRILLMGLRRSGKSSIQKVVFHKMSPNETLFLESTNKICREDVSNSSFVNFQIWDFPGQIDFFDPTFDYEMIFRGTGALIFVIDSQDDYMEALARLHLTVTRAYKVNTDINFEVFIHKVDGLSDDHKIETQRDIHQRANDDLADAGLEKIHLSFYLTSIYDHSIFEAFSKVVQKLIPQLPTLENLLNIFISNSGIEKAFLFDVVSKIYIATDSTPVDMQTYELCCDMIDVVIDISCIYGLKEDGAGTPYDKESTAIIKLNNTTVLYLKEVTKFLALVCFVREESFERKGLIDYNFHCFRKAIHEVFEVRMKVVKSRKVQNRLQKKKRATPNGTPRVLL
T1 sequence (Q9NQL2 whole entry, the tested form may be a part): as above

| Molecule | binding between RagD and LRS-(1-1176) [1] | binding between RagD and LRS-(1-1176) ([1]; listed as LRS-(759-1176)) | GTP hydrolysis by RagD GTPase (GAP activity) [2] |
| --- | --- | --- | --- |
| B1 | inhibited | decreased the binding affinity | enhanced GTP hydrolysis by RagD GTPase in dose- and time-dependent manner |
| B2 |  |  | lost their GAP activity |
| B3 |  |  | lost their GAP activity |

Source: patent US9435807B2, “Use of leucyl tRNA synthetase” (Medicinal Bioconvergence Research Center, priority 2011, dated 2016)
